These results are taken from article PMC9600179.

This data set concerns the target T1, AlgR (Pseudomonas aeruginosa PAO1) (UniProt P26275).
T1 sequence: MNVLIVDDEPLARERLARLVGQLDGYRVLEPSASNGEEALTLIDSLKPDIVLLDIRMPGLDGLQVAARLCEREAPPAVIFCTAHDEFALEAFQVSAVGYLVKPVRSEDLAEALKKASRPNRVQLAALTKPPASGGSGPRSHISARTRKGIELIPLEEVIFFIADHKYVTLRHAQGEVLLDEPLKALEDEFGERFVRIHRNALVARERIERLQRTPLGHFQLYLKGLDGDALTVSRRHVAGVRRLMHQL
The data set can be described thus: EMSA. To be noted: EMSA: 10 mM Tris-HCl pH 7.4, 50 mM KCl, 5 mM MgCl2, 10% glycerol, 30 min, temperature not stated; 1 ug DIDC (poly dI-dC) with FITC probes in some assays …. For orientation: Mobility shift assays separate free from complexed probe on a gel.
On to “GTACCTCGTCCGGCTCGGCGTCGGCGGTATAGCCGAGGATCAGGATCGGCGCGCGTCGCTCGCACCGTTCCTGGATGCGTATCCTGCGTGCCAGCTGATAGCCGTTCAGGCGCGGCATGTTGCAGTCGCTGATCAGCACCTCGAAGCGCTCGTCGGCCCAGAGCTCCAGCGCCA (double strand) [rocsS2 CDS fragment]”, for which the binding entry is “binds”.
In the case of “CTGGCGATGGAAGGCACTCCAATCGAGGTCCGCAGGGCCGACCAGCGCGTCCAGCGAGAAATCGTCGAGCAAAGGGCGTCCGGCGGCCGCACGCAGGGTCAACGGCGCCAAAGGACCGCTCAGCGACGGTGCATCGGCTTCACGCACCACCAGGCTGGCCTGGCAGTCGGCAGCGATATCGGCCAGGGCCTGCTCGCGGGACTT (double strand) [pqsA CDS fragment]” it was “binds”; in that of “CGGGTCTTCGTAGGCGTAGCGGGTGCTGCCGGCCGGGCCGCGCACCGTCGTCGCATTGCCCCGTTCGTCGCGCTCGAAGGTCCAGCGGCGCTGCATCGCGTCCTCCAGCTCGACCAGCAGCCCGGTCTCTTCGTCGACGCGCTTGCGATAGCGCGCCTTGCCCGGCGACTCCTCCTCGAGC (double strand) [tse5 CDS fragment]”, “binds”.
